Results published in PMC10953581, “SHMT2 Mediates Small‐Molecule‐Induced Alleviation of Alzheimer Pathology Via the 5′UTR‐dependent ADAM10 Translation Initiation”.

T1: murine SUMO-SHMT2 (Mus musculus, UniProt Q9CZN7 1-504)
T1 sequence: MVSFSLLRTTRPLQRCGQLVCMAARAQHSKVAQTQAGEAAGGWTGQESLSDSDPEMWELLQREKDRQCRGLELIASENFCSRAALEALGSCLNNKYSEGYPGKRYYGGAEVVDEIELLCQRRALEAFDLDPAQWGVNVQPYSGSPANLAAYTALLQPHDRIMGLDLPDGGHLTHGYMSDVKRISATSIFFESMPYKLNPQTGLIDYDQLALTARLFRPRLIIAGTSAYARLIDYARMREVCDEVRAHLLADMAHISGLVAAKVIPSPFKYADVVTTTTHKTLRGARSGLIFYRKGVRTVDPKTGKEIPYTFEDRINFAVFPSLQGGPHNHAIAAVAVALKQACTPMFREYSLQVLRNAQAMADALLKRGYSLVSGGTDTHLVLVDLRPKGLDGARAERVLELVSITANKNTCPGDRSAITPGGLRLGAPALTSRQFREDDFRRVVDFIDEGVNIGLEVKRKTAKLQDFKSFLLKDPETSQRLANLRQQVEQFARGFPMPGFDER

T2: human SUMO-SHMT2 (Homo sapiens, UniProt P34897 1-504)
T2 sequence: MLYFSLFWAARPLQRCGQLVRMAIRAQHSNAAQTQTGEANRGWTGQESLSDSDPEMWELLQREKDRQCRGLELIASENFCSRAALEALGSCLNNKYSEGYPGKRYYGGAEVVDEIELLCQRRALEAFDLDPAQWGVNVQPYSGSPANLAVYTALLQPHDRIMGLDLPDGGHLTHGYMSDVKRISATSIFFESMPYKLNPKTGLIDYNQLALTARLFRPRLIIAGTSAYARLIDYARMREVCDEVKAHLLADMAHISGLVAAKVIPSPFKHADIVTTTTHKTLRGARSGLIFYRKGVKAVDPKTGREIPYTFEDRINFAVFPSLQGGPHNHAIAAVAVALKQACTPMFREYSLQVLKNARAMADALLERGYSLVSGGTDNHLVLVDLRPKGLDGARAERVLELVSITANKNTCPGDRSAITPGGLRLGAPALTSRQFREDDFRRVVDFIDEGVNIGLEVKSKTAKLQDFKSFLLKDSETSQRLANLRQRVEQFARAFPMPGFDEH


biological target: T1, murine SUMO-SHMT2; test: EMSA; RNA EMSA (LightShift kit): 10 pmol biotin-RNA, 6 ug protein, 1X EMSA binding buffer, 5% glycerol, 0.1 mg/mL tRNA, 20 uL, 30 min, room temperature; salt and pH not stated; settings: protein: recombinant; tags: SUMO; label: 5' biotin

Binder | binding result
GAAGAGGCCGAGGGGGAGGGAGGGCCCU (ssRNA) [mouse 30-57] | binds
GAGGGCAGGGAAGCGGGGAAGGGAGGAAG (ssRNA) [mouse 1-29] | binds
GUUUUGGCGGAGCAGGGCGCGCGGCUGGG (ssRNA) [mouse 58-86] | no binding

biological target: T2, human SUMO-SHMT2; test: as above; settings: protein: recombinant; tags: SUMO; chain copies: 4; label: 5' biotin

Binder | binding result
GGACGGGUAGGGGCGGGAGGUA (ssRNA) [69-90] | binds
UGAGUUUCGAAGGAGGGGGG (ssRNA) [156-175] | binds
GAGAGAAGAGGGAACGAGCAAGGGA (ssRNA) [176-200] | binds
GGAAACGAACUAUUUGUAUUUA (ssRNA) [MUT223-244] | no binding
AGGAAAGCGGGGAAAGGAGGAA (ssRNA) [201-222] | binds
GAGAGAAUAUUUAACGAGCAAGGGA (ssRNA) [MUT176-200] | no binding
GGAAACGAACGAGGGGGAGGGA (ssRNA) [223-244] | binds
GGACGGGUAGGGGCUUUAUGUA (ssRNA) [MUT69-90] | no binding
UGAGUUUCGAAGUAUUUGGG (ssRNA) [MUT156-175] | no binding
AGUAAAUCGGGUAAAUGAGGAA (ssRNA) [MUT201-222] | no binding
